From patent publication US20090036380A1 (YEDA RESEARCH AND DEVELOPMENT, published 2009)
Ends that are not written are not given here.

What was measured:
[1] = target: T1, full length Karet protein (RRS bait) (mouse, UniProt Q8K2Y9 1-453); assay: RRS screen in yeast, whole Karet protein against an embryonic mouse brain library
T1 construct: Yeast RRS construct; fusion partner not described; also called whole Karet protein
Text: The Ras rescue system (RRS) method is based on translocation of a mammalian cytoplasmic Ras to the plasma membrane, resulting in activation of a viability pathway in yeast (Broder, Y. C., S. Katz, and A. Aronheim. Curr Biol, 1998. 8 (20): p. 1121-4; Aronheim, A. Methods Mol Biol, 2004. 250: p. 251-62; Hubsman, M., G. et al. Nucleic Acids Res, 2001. 29 (4): p. E18).

[2] = target: T2, recombinant PTB-domain containing Karet(1-228) truncation mutant (mouse, UniProt Q8K2Y9 1-228); assay: in-vitro precipitation with biotinylated peptide on streptavidin beads, blot anti-His
T2 construct: Recombinant protein for in-vitro precipitation; also called recombinant Karet protein; Karet PTB domain
T2 sequence: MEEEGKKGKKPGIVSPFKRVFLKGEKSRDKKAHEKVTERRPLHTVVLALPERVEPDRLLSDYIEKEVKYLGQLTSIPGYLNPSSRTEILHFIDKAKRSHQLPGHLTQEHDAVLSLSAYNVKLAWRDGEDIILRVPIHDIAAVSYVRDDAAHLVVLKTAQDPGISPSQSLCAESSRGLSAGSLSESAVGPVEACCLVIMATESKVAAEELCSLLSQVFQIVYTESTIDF

B1: Cyclin D1, mRNA (other, mouse, UniProt P25322 1-295, looked up)
chain: MEHQLLCCEVETIRRAYPDTNLLNDRVLRAMLKTEETCAPSVSYFKCVQKEIVPSMRKIVATWMLEVCEEQKCEEEVFPLAMNYLDRFLSLEPLKKSRLQLLGATCMFVASKMKETIPLTAEKLCIYTDNSIRPEELLQMELLLVNKLKWNLAAMTPHDFIEHFLSKMPEADENKQTIRKHAQTFVALCATDVKFISNPPSMVAAGSVVAAMQGLNLGSPNNFLSCYRTTHFLSRVIKCDPDCLRACQEQIEALLESSLRQAQQNVDPKATEEEGEVEEEAGLACTPTDVRDVDI
notes: RRS library clone (embryonic mouse brain)
B1: binds [1].

B2: Cysteine and glycine-rich protein 1 (Csrp1), mRNA (other, mouse, UniProt P97315 1-193, looked up)
chain: MPNWGGGKKCGVCQKTVYFAEEVQCEGNSFHKSCFLCMVCKKNLDSTTVAVHGEEIYCKSCYGKKYGPKGYGYGQGAGTLSTDKGESLGIKHEEAPGHRPTTNPNASKFAQKIGGSERCPRCSQAVYAAEKVIGAGKSWHKSCFRCAKCGKGLESTTLADKDGEIYCKGCYAKNFGPKGFGFGQGAGALVHSE
notes: as for B1
B2: binds [1].

B3: biotinylated synthetic TrkA juxtamembrane region peptide, position 458-484 (peptide)
peptide: MSLHFMTLGGSSLSPTEGKGSGLQGHI
modifications: also: biotinylated (position not given here)
notes: Immobilized on streptavidin beads; also called TrkA peptide
B3: binds [2].
